Results as given in paper PMC9960136, “VH-Based Mini Q-Body: A Novel Quench-Based Immunosensor” (Sensors (Basel, Switzerland), 2023).

Assays:
Details in all cases: both partners purified
[1] = target: T1, hen egg lysozyme (Gallus gallus (hen), UniProt P00698); assay: ELISA; HEL or BSA (2 μg/mL in 100 μL PBS) coated on microplate wells, 16 h 4 °C; sdAb or mini Q-body added at 2 μg/mL, 1 h 37 °C; bound protein probed with anti-His-HRP
T1 construct: hen egg lysozyme (HEL), lysozyme C of the chicken; No supplier is named for HEL; also called HEL; antigen
T1 sequence (P00698 19-147): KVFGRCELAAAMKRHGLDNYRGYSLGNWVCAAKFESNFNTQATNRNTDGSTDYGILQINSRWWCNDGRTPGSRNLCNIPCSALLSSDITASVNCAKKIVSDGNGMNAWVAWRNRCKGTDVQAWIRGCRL

[2] = target: T2, bovine serum albumin (Bos taurus (bovine), UniProt P02769); assay: other fluorescence titration; de-quenching at one concentration: 10 ng mini Q-body in 250 μL PBST; 10 μM antigen added, measured after 5 min; BSA as control antigen
T2 construct: bovine serum albumin (BSA); No supplier is named for BSA; also called BSA; control antigen
T2 sequence (P02769 25-607): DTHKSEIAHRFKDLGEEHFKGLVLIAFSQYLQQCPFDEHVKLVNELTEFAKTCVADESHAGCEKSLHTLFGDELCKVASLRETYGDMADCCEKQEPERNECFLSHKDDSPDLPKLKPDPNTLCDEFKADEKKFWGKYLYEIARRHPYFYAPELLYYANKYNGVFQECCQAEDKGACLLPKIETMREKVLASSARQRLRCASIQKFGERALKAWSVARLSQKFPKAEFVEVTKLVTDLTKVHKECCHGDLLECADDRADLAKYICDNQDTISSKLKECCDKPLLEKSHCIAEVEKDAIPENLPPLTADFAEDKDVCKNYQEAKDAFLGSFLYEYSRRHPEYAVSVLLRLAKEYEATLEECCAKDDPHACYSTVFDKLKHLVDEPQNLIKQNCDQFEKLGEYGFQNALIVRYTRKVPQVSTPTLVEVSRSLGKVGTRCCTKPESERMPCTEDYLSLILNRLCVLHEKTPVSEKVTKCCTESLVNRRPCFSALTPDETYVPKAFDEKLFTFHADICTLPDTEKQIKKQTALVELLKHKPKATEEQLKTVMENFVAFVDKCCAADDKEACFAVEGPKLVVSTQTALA

[3] = target: T1, hen egg lysozyme; assay: other fluorescence titration; de-quenching dose response: 10 ng mini Q-body in 250 μL PBST in a quartz cell; antigen added stepwise (0, 1 nM to 10 μM) at 5 min intervals; EC50 by 4-parameter logistic fit

Row | Binder | binding result [1] | binding result [2] | EC50 [3] [nM]
1 | TAMRA-C5-labeled C3 W47F mini Q-body (VHH, as the VH of m1 with W47F; Same chain as m10 with the dye on the Cys-tag; also called W47F (after labeling with TAMRA-C5); source: labeled with TAMRA-C5; not shown: His-tag, C-terminal, kept) VHH: EVQLLESGGGLVQPGGSLRLSCAASGFRDSDEDMGWVRQAPGKGLEFVSSIYGESGSTYYADSVKGRFTISRDNSKNTLYLQMNSLRAEDTAVYYCASYNYYYNVFDYWGQGTLVTVSS | binds | – | –
2 | C3 mini Q-body labeled with TAMRA-C6(5) (VHH, as the VH of m1; Same chain as m1 with the dye on the Cys-tag; not shown: His-tag, C-terminal, kept) VHH: EVQLLESGGGLVQPGGSLRLSCAASGFRDSDEDMGWVRQAPGKGLEWVSSIYGESGSTYYADSVKGRFTISRDNSKNTLYLQMNSLRAEDTAVYYCASYNYYYNVFDYWGQGTLVTVSS | – | no binding | 401
3 | C3 mini Q-body labeled with TAMRA-C6(6) (VHH, as the VH of m1; Same chain as m1 with the dye on the Cys-tag; not shown: His-tag, C-terminal, kept) VHH: EVQLLESGGGLVQPGGSLRLSCAASGFRDSDEDMGWVRQAPGKGLEWVSSIYGESGSTYYADSVKGRFTISRDNSKNTLYLQMNSLRAEDTAVYYCASYNYYYNVFDYWGQGTLVTVSS | – | no binding | 362
4 | C3 mutant W47F (unlabeled) (VHH, as the VH of m1 with W47F; not shown: His-tag, C-terminal, kept) VHH: EVQLLESGGGLVQPGGSLRLSCAASGFRDSDEDMGWVRQAPGKGLEFVSSIYGESGSTYYADSVKGRFTISRDNSKNTLYLQMNSLRAEDTAVYYCASYNYYYNVFDYWGQGTLVTVSS | binds | – | –

The next lines start with the values.

Row | binding result [1] | binding result [2] | EC50 [3] [nM] | Binder
5 | – | no binding | 39 | C3 mini Q-body labeled with TAMRA-C0 (VHH, as the VH of m1; Same chain as m1 with the dye on the Cys-tag; not shown: His-tag, C-terminal, kept) VHH: EVQLLESGGGLVQPGGSLRLSCAASGFRDSDEDMGWVRQAPGKGLEWVSSIYGESGSTYYADSVKGRFTISRDNSKNTLYLQMNSLRAEDTAVYYCASYNYYYNVFDYWGQGTLVTVSS
6 | – | no binding | 276 | C3 mini Q-body labeled with ATTO520 (VHH, as the VH of m1; Same chain as m1 with the dye on the Cys-tag; also called ATTO520-C2; not shown: His-tag, C-terminal, kept) VHH: EVQLLESGGGLVQPGGSLRLSCAASGFRDSDEDMGWVRQAPGKGLEWVSSIYGESGSTYYADSVKGRFTISRDNSKNTLYLQMNSLRAEDTAVYYCASYNYYYNVFDYWGQGTLVTVSS
7 | no binding (tested: 2 μg/mL) | – | – | C3 mutant W36F (unlabeled) (VHH, as the VH of m1 with W36F; not shown: His-tag, C-terminal, kept) VHH: EVQLLESGGGLVQPGGSLRLSCAASGFRDSDEDMGFVRQAPGKGLEWVSSIYGESGSTYYADSVKGRFTISRDNSKNTLYLQMNSLRAEDTAVYYCASYNYYYNVFDYWGQGTLVTVSS
8 | – | no binding | 397 | C3 mini Q-body labeled with rhodamine 6G (R6G-C5) (VHH, as the VH of m1; Same chain as m1 with the dye on the Cys-tag; also called R6G-C5 Q-body; Rhodamine 6G-labeled mini Q-body; not shown: His-tag, C-terminal, kept) VHH: EVQLLESGGGLVQPGGSLRLSCAASGFRDSDEDMGWVRQAPGKGLEWVSSIYGESGSTYYADSVKGRFTISRDNSKNTLYLQMNSLRAEDTAVYYCASYNYYYNVFDYWGQGTLVTVSS
9 | – | no binding | 263 | C3 mini Q-body labeled with TAMRA-C5 (VHH, as the VH of m1; Same chain as m1 with the dye on the Cys-tag; also called TAMRA-C5-labeled C3 mini Q-body; TAMRA-labeled C3WT; not shown: His-tag, C-terminal, kept) VHH: EVQLLESGGGLVQPGGSLRLSCAASGFRDSDEDMGWVRQAPGKGLEWVSSIYGESGSTYYADSVKGRFTISRDNSKNTLYLQMNSLRAEDTAVYYCASYNYYYNVFDYWGQGTLVTVSS
10 | – | no binding | 50 | C3 mini Q-body labeled with TAMRA-C2 (VHH, as the VH of m1; Same chain as m1 with the dye on the Cys-tag; not shown: His-tag, C-terminal, kept) VHH: EVQLLESGGGLVQPGGSLRLSCAASGFRDSDEDMGWVRQAPGKGLEWVSSIYGESGSTYYADSVKGRFTISRDNSKNTLYLQMNSLRAEDTAVYYCASYNYYYNVFDYWGQGTLVTVSS
